Test results taken from patent US20250163127A1.

Key:
human PD-1 (human) = human PD-1 (human) (UniProt Q15116)
CTLA4 (human) = assay: flow cytometry, CHO cells stably expressing CTLA4
PD-L1 (human) = assay: flow cytometry, CHO cells stably expressing PD-L1
CD28 (human) = CD28 (human) (UniProt P10747); assay: flow cytometry, Jurkat cells (CD28)

Sequence of PD-L1 (human) (chain, as listed by the source): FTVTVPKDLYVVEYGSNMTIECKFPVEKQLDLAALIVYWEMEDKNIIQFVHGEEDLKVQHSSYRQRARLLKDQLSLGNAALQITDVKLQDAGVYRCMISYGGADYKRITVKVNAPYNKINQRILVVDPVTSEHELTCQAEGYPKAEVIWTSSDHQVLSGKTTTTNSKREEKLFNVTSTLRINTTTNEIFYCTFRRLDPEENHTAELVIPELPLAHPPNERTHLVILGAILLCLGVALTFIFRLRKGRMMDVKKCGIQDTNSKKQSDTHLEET
Sequence of CTLA4 (human) (chain, as listed by the source): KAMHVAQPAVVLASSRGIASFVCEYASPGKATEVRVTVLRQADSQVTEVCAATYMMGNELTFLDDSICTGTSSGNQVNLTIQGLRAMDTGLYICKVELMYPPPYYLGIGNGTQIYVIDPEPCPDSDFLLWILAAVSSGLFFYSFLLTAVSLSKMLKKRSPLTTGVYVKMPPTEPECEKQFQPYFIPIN
Sequence of human PD-1 (human) (Q15116 25-288): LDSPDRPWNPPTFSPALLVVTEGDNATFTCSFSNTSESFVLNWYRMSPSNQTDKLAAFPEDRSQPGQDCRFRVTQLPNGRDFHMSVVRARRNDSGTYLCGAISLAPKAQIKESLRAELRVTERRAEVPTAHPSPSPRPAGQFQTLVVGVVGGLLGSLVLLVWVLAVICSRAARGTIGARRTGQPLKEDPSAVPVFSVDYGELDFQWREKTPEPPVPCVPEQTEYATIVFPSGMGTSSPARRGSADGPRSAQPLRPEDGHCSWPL

IFN gamma levels pg/mL (MLR) (human PD-1 (human)) | Fold change to WT CD80 (CTLA4 (human)) | MFI at 33.3 nM (CTLA4 (human)) | Fold change to WT (PD-L1 (human)) | MFI at 33.3 nM (PD-L1 (human)) | Fold change to WT (CD28 (human)) | MFI at 33.3 nM (CD28 (human)) | Binder
 | 0.01 fold | 1660 MFI | 9.14 fold | 72600 MFI | 0.04 fold | 284 MFI | CD80 variant Q33L/E35D/M47I/T62N/L85Q IgV-Fc (Fc fusion) VIHVTKEVKEVATLSCGHNVSVEELAQTRIYWLKDKKMVLTMMSGDINIWPEYKNRTIFDINNNLSIVILALRPSDEGTYECVVQKYEKDAFKREHLAEVT
 | 0.04 fold | 6390 MFI | 5.66 fold | 44900 MFI | 0.06 fold | 433 MFI | CD80 variant Q33L/E35D/T41S/M43I IgV-Fc (Fc fusion) VIHVTKEVKEVATLSCGHNVSVEELAQTRIYWLKDKKMVLSMISGDMNIWPEYKNRTIFDITNNLSIVILALRPSDEGTYECVVLKYEKDAFKREHLAEVT
 | 1.34 fold | 239000 MFI | 7.77 fold | 61700 MFI | 0.04 fold | 339 MFI | CD80 variant E35D/M47V/A71G/L85M/L97Q IgV-Fc (Fc fusion) VIHVTKEVKEVATLSCGHNVSVEELAQTRIYWQKDKKMVLTMMSGDVNIWPEYKNRTIFDITNNLSIVILGLRPSDEGTYECVVMKYEKDAFKREHQAEVT
 | 0.31 fold | 56100 MFI | 1.86 fold | 14800 MFI | 0.04 fold | 269 MFI | CD80 variant Q27H/Q33L/E35D/M47V/N55D/L85Q/K89N IgV-Fc (Fc fusion) VIHVTKEVKEVATLSCGHNVSVEELAHTRIYWLKDKKMVLTMMSGDVNIWPEYKDRTIFDITNNLSIVILALRPSDEGTYECVVQKYENDAFKREHLAEVT
 | 0.02 fold | 2880 MFI | 15.2 fold | 121000 MFI | 0.03 fold | 260 MFI | CD80 variant H18Y/V20A/Q33L/E35D/M47V/Y53F IgV-Fc (Fc fusion) VIHVTKEVKEVATLSCGYNASVEELAQTRIYWLKDKKMVLTMMSGDVNIWPEFKNRTIFDITNNLSIVILALRPSDEGTYECVVLKYEKDAFKREHLAEVT
 | 2.09 fold | 374000 MFI | 12.3 fold | 98100 MFI | 0.06 fold | 434 MFI | CD80 variant H18L/V22A/E35D/M47L/N48T/L85Q IgV-Fc (Fc fusion) VIHVTKEVKEVATLSCGLNVSAEELAQTRIYWQKDKKMVLTMMSGDLTIWPEYKNRTIFDITNNLSIVILALRPSDEGTYECVVQKYEKDAFKREHLAEVT
 | 0.01 fold | 1180 MFI | 5.69 fold | 45200 MFI | 0.04 fold | 279 MFI | CD80 variant Q33L/E35D/N48K/L85Q/L97Q IgV-Fc (Fc fusion) VIHVTKEVKEVATLSCGHNVSVEELAQTRIYWLKDKKMVLTMMSGDMKIWPEYKNRTIFDITNNLSIVILALRPSDEGTYECVVQKYEKDAFKREHQAEVT
 | 0.01 fold | 2110 MFI | 3.53 fold | 28000 MFI | 0.05 fold | 366 MFI | CD80 variant Q33L/E35D/M47L/A71G/F92S IgV-Fc (Fc fusion) VIHVTKEVKEVATLSCGHNVSVEELAQTRIYWLKDKKMVLTMMSGDLNIWPEYKNRTIFDITNNLSIVILGLRPSDEGTYECVVLKYEKDASKREHLAEVT
 | 2.45 fold | 437000 MFI | 0.17 fold | 1350 MFI | 1.83 fold | 14000 MFI | CD80 variant V22A/E35D/V68E/A71D IgV-Fc (Fc fusion) VIHVTKEVKEVATLSCGHNVSAEELAQTRIYWQKDKKMVLTMMSGDMNIWPEYKNRTIFDITNNLSIEILDLRPSDEGTYECVVLKYEKDAFKREHLAEVT
 | 1.71 fold | 305000 MFI | 2.45 fold | 19500 MFI | 0.05 fold | 371 MFI | CD80 variant E35D/D46E/M47V/L97Q IgV-Fc (Fc fusion) VIHVTKEVKEVATLSCGHNVSVEELAQTRIYWQKDKKMVLTMMSGEVNIWPEYKNRTIFDITNNLSIVILALRPSDEGTYECVVLKYEKDAFKREHQAEVT

The next lines start with the binder.

Binder | IFN gamma levels pg/mL (MLR) (human PD-1 (human)) | Fold change to WT CD80 (CTLA4 (human)) | MFI at 33.3 nM (CTLA4 (human)) | Fold change to WT (PD-L1 (human)) | MFI at 33.3 nM (PD-L1 (human)) | Fold change to WT (CD28 (human)) | MFI at 33.3 nM (CD28 (human))
variant PD-L2 IgV Q82R/V89D Fc fusion (Fc fusion) LFTVTVPKELYIIEHGSNVTLECNFDTGSHVNLGAITASLQKVENDTSPHRERATLLEEQLPLGKASFHIPQVQVRDEGQYRCIIIYGDAWDYKYLTLKVKA | 1620 pg/mL |  |  |  |  |  | 
CD80 variant Q33L/E35D/M43V/M47I/A71G IgV-Fc (Fc fusion) VIHVTKEVKEVATLSCGHNVSVEELAQTRIYWLKDKKMVLTMVSGDINIWPEYKNRTIFDITNNLSIVILGLRPSDEGTYECVVLKYEKDAFKREHLAEVT |  | 0.08 fold | 14000 MFI | 9.82 fold | 78000 MFI | 0.04 fold | 284 MFI
CD80 variant Q33L/E35D/M43I/L85Q/R94W IgV-Fc (Fc fusion) VIHVTKEVKEVATLSCGHNVSVEELAQTRIYWLKDKKMVLTMISGDMNIWPEYKNRTIFDITNNLSIVILALRPSDEGTYECVVQKYEKDAFKWEHLAEVT |  | 0.01 fold | 1080 MFI | 3.65 fold | 29000 MFI | 0.04 fold | 272 MFI
CD80 variant E35D/M47I/E77A/L85Q/R94W IgV-Fc (Fc fusion) VIHVTKEVKEVATLSCGHNVSVEELAQTRIYWQKDKKMVLTMMSGDINIWPEYKNRTIFDITNNLSIVILALRPSDAGTYECVVQKYEKDAFKWEHLAEVT |  | 1.38 fold | 247000 MFI | 8.12 fold | 64500 MFI | 0.04 fold | 272 MFI
CD80 variant Y31S/E35D/M47L/T79L/E88G IgV-Fc (Fc fusion) VIHVTKEVKEVATLSCGHNVSVEELAQTRISWQKDKKMVLTMMSGDLNIWPEYKNRTIFDITNNLSIVILALRPSDEGLYECVVLKYGKDAFKREHLAEVT |  | 0.01 fold | 1100 MFI | 4.9 fold | 38900 MFI | 0.04 fold | 278 MFI
CD80 variant A26E/E35D/M43T/M47L/L85Q/R94Q IgV-Fc (Fc fusion) VIHVTKEVKEVATLSCGHNVSVEELEQTRIYWQKDKKMVLTMTSGDLNIWPEYKNRTIFDITNNLSIVILALRPSDEGTYECVVQKYEKDAFKQEHLAEVT |  | 1.56 fold | 278000 MFI | 8.57 fold | 68100 MFI | 0.03 fold | 260 MFI
CD80 variant Q33L/E35D/M47V/L85Q IgV-Fc (Fc fusion) VIHVTKEVKEVATLSCGHNVSVEELAQTRIYWLKDKKMVLTMMSGDVNIWPEYKNRTIFDITNNLSIVILALRPSDEGTYECVVQKYEKDAFKREHLAEVT |  | 0.42 fold | 75400 MFI | 5.97 fold | 47400 MFI | 0.04 fold | 268 MFI
CD80 variant Q33L/E35D/M47L/V68M/L85Q/E88D IgV-Fc (Fc fusion) VIHVTKEVKEVATLSCGHNVSVEELAQTRIYWLKDKKMVLTMMSGDLNIWPEYKNRTIFDITNNLSIMILALRPSDEGTYECVVQKYDKDAFKREHLAEVT |  | 0.02 fold | 3530 MFI | 15.8 fold | 126000 MFI | 0.03 fold | 264 MFI
CD80 variant H18Y/E35D/V68M/L97Q IgV-Fc (Fc fusion) VIHVTKEVKEVATLSCGYNVSVEELAQTRIYWQKDKKMVLTMMSGDMNIWPEYKNRTIFDITNNLSIMILALRPSDEGTYECVVLKYEKDAFKREHQAEVT |  | 0.97 fold | 173000 MFI | 15.3 fold | 122000 MFI | 0.04 fold | 299 MFI
CD80 variant V22A/E23D/Q33L/E35D/M47V IgV-Fc (Fc fusion) VIHVTKEVKEVATLSCGHNVSADELAQTRIYWLKDKKMVLTMMSGDVNIWPEYKNRTIFDITNNLSIVILALRPSDEGTYECVVLKYEKDAFKREHLAEVT |  | 0.02 fold | 3640 MFI | 9.51 fold | 75500 MFI | 0.04 fold | 274 MFI
CD80 variant H18Y/Y31H/E35D/M47V/A71G/L85Q IgV-Fc (Fc fusion) VIHVTKEVKEVATLSCGYNVSVEELAQTRIHWQKDKKMVLTMMSGDVNIWPEYKNRTIFDITNNLSIVILGLRPSDEGTYECVVQKYEKDAFKREHLAEVT |  | 0.02 fold | 3840 MFI | 9.61 fold | 76400 MFI | 0.04 fold | 268 MFI
CD80 variant Q33K/E35D/D46V/L85Q IgV-Fc (Fc fusion) VIHVTKEVKEVATLSCGHNVSVEELAQTRIYWKKDKKMVLTMMSGVMNIWPEYKNRTIFDITNNLSIVILALRPSDEGTYECVVQKYEKDAFKREHLAEVT |  | 0.05 fold | 8510 MFI | 3.36 fold | 26700 MFI | 0.03 fold | 257 MFI
CD80 variant V22A/R29H/E35D/D46E/M47I IgV-Fc (Fc fusion) VIHVTKEVKEVATLSCGHNVSAEELAQTHIYWQKDKKMVLTMMSGEINIWPEYKNRTIFDITNNLSIVILALRPSDEGTYECVVLKYEKDAFKREHLAEVT |  | 0.43 fold | 77400 MFI | 3.2 fold | 25400 MFI | 0.04 fold | 323 MFI
CD80 variant E7D/E35D/M47I/L97Q IgV-Fc (Fc fusion) VIHVTKDVKEVATLSCGHNVSVEELAQTRIYWQKDKKMVLTMMSGDINIWPEYKNRTIFDITNNLSIVILALRPSDEGTYECVVLKYEKDAFKREHQAEVT |  | 1.52 fold | 271000 MFI | 1.84 fold | 14600 MFI | 0.04 fold | 273 MFI
